Here are results for 2 variants from IntAct's records for PubMed 16778766.

Sequences and labels used below:
B1: Estrogen receptor (Mus musculus), P19785 (parent)
chain: MTMTLHTKASGMALLHQIQGNELEPLNRPQLKMPMERALGEVYVDNSKPTVFNYPEGAAYEFNAAAAAAAAASAPVYGQSGIAYGPGSEAAAFSANSLGAFPQLNSVSPSPLMLLHPPPQLSPFLHPHGQQVPYYLENEPSAYAVRDTGPPAFYRSNSDNRRQNGRERLSSSNEKGNMIMESAKETRYCAVCNDYASGYHYGVWSCEGCKAFFKRSIQGHNDYMCPATNQCTIDKNRRKSCQACRLRKCYEVGMMKGGIRKDRRGGRMLKHKRQRDDLEGRNEMGASGDMRAANLWPSPLVIKHTKKNSPALSLTADQMVSALLDAEPPMIYSEYDPSRPFSEASMMGLLTNLADRELVHMINWAKRVPGFGDLNLHDQVHLLECAWLEILMIGLVWRSMEHPGKLLFAPNLLLDRNQGKCVEGMVEIFDMLLATSSRFRMMNLQGEEFVCLKSIILLNSGVYTFLSSTLKSLEEKDHIHRVLDKITDTLIHLMAKAGLTLQQQHRRLAQLLLILSHIRHMSNKGMEHLYNMKCKNVVPLYDLLLEMLDAHRLHAPASRMGVPPEEPSQTQLATTSSTSAHSLQTYYIPPEAEGFPNTI

Variants of B1 are the subject of this experiment. The conditions noted are these: with cnot1_human CNOT1, A5YKK6.
Chain of cnot1_human CNOT1, A5YKK6 (A5YKK6 whole entry): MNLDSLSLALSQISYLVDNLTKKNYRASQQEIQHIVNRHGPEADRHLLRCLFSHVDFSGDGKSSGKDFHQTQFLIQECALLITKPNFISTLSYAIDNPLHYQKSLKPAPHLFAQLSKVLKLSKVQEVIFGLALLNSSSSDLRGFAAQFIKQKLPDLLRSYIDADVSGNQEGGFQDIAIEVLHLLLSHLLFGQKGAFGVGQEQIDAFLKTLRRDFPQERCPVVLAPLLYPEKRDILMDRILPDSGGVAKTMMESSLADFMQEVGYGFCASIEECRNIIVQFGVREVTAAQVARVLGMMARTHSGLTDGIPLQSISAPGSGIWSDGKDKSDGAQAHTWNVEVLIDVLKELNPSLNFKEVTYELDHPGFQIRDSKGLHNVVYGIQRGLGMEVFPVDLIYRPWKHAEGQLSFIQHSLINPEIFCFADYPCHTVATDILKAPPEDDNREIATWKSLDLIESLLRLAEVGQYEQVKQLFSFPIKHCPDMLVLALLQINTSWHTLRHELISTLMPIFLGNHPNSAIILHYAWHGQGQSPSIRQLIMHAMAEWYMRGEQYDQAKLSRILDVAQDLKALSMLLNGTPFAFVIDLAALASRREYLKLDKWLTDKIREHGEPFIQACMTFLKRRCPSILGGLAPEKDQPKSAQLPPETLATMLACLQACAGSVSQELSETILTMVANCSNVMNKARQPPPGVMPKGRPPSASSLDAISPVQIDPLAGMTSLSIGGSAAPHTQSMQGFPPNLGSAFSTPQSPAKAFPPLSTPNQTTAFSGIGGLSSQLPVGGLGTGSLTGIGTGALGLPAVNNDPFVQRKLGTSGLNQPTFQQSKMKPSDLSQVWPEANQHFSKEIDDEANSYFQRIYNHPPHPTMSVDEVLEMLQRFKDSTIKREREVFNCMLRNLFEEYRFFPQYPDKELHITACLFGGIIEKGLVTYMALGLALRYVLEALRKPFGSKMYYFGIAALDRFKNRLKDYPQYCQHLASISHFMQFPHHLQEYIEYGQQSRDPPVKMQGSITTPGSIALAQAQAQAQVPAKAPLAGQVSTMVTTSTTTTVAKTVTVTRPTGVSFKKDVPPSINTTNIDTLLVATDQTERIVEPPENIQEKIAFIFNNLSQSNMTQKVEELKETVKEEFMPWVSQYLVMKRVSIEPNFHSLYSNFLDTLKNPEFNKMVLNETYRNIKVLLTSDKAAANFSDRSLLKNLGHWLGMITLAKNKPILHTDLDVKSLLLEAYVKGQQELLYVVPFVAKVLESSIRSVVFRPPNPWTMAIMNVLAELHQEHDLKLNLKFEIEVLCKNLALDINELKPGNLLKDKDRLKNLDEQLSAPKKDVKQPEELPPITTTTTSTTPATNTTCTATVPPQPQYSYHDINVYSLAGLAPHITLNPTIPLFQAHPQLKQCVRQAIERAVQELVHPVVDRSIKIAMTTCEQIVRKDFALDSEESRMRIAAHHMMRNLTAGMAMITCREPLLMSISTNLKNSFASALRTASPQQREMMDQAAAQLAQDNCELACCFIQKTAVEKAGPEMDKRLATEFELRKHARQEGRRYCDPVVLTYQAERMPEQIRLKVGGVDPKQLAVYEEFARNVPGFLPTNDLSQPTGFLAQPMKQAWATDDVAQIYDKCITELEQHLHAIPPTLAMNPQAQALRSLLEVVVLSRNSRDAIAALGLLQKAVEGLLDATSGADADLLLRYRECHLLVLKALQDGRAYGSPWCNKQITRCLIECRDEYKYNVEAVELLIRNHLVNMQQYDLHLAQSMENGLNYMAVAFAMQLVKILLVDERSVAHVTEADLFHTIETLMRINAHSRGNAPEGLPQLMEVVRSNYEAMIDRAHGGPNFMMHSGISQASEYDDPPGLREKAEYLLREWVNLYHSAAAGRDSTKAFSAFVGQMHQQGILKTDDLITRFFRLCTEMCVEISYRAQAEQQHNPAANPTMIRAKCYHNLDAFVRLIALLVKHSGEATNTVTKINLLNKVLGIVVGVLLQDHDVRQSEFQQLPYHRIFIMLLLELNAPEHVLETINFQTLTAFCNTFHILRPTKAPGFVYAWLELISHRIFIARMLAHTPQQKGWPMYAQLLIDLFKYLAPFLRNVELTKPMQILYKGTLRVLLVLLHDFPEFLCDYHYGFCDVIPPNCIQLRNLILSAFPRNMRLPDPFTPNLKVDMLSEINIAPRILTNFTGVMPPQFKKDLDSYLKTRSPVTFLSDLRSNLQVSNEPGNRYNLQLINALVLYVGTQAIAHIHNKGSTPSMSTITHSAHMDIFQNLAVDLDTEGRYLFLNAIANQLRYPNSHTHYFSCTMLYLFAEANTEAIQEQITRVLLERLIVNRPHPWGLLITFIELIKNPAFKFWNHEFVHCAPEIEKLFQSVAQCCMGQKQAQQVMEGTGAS
As for MTMTLHTKASGMALLHQIQGNELEPLNRPQLKMPMERALGEVYVDNSKPTVFNYPEGAAYEFNAAAAAAAAASAPVYGQSGIAYGPGSEAAAFSANSLGAFPQLNSVSPSPLMLLHPPPQLSPFLHPHGQQVPYYLENEPSAYAVRDTGPPAFYRSNSDNRRQNGRERLSSSNEKGNMIMESAKETRYCAVCNDYASGYHYGVWSCEGCKAFFKRSIQGHNDYMCPATNQCTIDKNRRKSCQACRLRKCYEVGMMKGGIRKDRRGGRMLKHKRQRDDLEGRNEMGASGDMRAANLWPSPLVIKHTKKNSPALSLTADQMVSALLDAEPPMIYSEYDPSRPFSEASMMGLLTNLADRELVHMINWAKRVPGFGDLNLHDQVHLLECAWLEILMIGLVWRSMEHPGKLLFAPNLLLDRNQGKCVEGMVEIFDMLLATSSRFRMMNLQGEEFVCLKSIILLNSGVYTFLSSTLKSLEEKDHIHRVLDKITDTLIHLMAKAGLTLQQQHRRLAQLLLILSHIRHMSNKGMEHLYNMKCKNVVPLYDLLLEMADAHRLHAPASRMGVPPEEPSQTQLATTSSTSAHSLQTYYIPPEAEGFPNTI [L548A], the “effect of a mutation on the interaction” value was “disrupting interaction”.

For the variant MTMTLHTKASGMALLHQIQGNELEPLNRPQLKMPMERALGEVYVDNSKPTVFNYPEGAAYEFNAAAAAAAAASAPVYGQSGIAYGPGSEAAAFSANSLGAFPQLNSVSPSPLMLLHPPPQLSPFLHPHGQQVPYYLENEPSAYAVRDTGPPAFYRSNSDNRRQNGRERLSSSNEKGNMIMESAKETRYCAVCNDYASGYHYGVWSCEGCKAFFKRSIQGHNDYMCPATNQCTIDKNRRKSCQACRLRKCYEVGMMKGGIRKDRRGGRMLKHKRQRDDLEGRNEMGASGDMRAANLWPSPLVIKHTKKNSPALSLTADQMVSALLDAEPPMIYSEYDPSRPFSEASMMGLLTNLADRELVHMINWAKRVPGFGDLNLHDQVHLLECAWLEILMIGLVWRSMEHPGKLLFAPNLLLDRNQGKCVEGMVEIFDMLLATSSRFRMMNLQGEEFVCLKSIILLNSGVYTFLSSTLKSLEEKDHIHRVLDKITDTLIHLMAKAGLTLQQQHRRLAQLLLILSHIRHMSNKGMEHLYNMKCKNVVPLYDLLLEALDAHRLHAPASRMGVPPEEPSQTQLATTSSTSAHSLQTYYIPPEAEGFPNTI [M547A], the “effect of a mutation on the interaction” value was “disrupting interaction”.
